From the RNAGym collection of RNA variant scans (doi:10.7554/elife.90254)

B1: LINE1-full (parent)
chain: UACGUAGGUGGUUUUCCCCUGAUAGUGCUAAGGGGGCCUGGAAGUUUGGACUGGGCAGAGCUCAACACAGCGUGGCAAAGUGGCUGUGGCUAGACUGCCUCUCUGGAUUCCUCGUCACUCAGCAGGGCAUCUCUGAGAGAAAUGCC

Variants of: B1
Test: self-cleavage, relative activity (ratio to wild type); higher = more cleavage; in vitro, sequencing; the parent is a self-cleaving ribozyme

Variant	self-cleavage
G74A U81C	0.78
G72C U134A	0.97
G72A A141U	1.42
G72A A141G	1.54
C76U A142C	0.92
G75A G105U	0.67
G74A A141G	0.97
G74A A94G	0.15
G75U U109C	0.7
G75C A138G	1.01
U73C C113A	1.4
U73C A79G	1.79
G72U C145G	0.94
U73A U109A	0.92
C71U U130A	1
U73C U87A	0.31
U73C U87C	0.2
A77G U143C	2.2
A77G U143A	1.85
U73G A141G	1.81
G72U A140G	0.6
U73G U109C	1.07
G74U U143C	1.48
U73G A142U	0.61

Variant	self-cleavage
G72U A107C	2.15
G72A G105U	1.29
U73G U104C	2
G72A A94G	0.33
G72A U85G	0.21
G72A U85A	0.07
G75C A142U	0.66
A77C U112C	1.84
U73A U119A	1.59
U73A U119C	1.86
U73C C110U	2.11
G75A G82U	1.07
G74A U104A	0.75
G74A G89A	0.03
U73A U112G	1.53
U73A U112C	1.56
U73A U112A	2.03
U73C A141G	1.62
U73C A141U	1.53
A77G U85C	0.25
A77G U85A	0.06
A77G U85G	0.2
C71U U134A	0.36
G72A A124U	1.22

Variant	self-cleavage
G72A A124G	0.52
C76U C113A	2.15
G72U A94G	0.46
A77G A117U	2.58
C76U A129U	1.57
G72U U132C	1.11
G72A A92U	0.69
C76U G82A	2.8
G72U A138G	1.55
U73A A121G	1.93
U73A A121U	1.28
G75A U81C	0.67
C76U A138G	2.42
U73A A140G	1.69
U73A G88A	0.07
G72U U73A	1.33
G74U A117U	1.79
U73G U112G	0
C71U U85C	0.06
G74A A77G	1.35
G75A C123U	0.69
U73C C133U	1.97
A77G U87A	0.09
A77G U87C	0.42

Variant	self-cleavage
U73C C101U	1.01
U73C U112G	2.63
A77G G139A	1.52
G75A A129G	1.61
G75A A129U	1.13
U73A U91A	0.72
U73G U134C	1.57
U73A C113A	0.23
U73C G144A	1.77
G72U C76U	2.1
U73A U132G	2.06
U73C A124G	0.64
U73C A124U	1.5
G74A U85C	0.06
G74A U100C	1.62
A77C U130C	1.89
U73C G75U	0.78
U73A A79C	2.16
U73A A79G	1.2
G72A G135U	1.2
U73C G88U	0.13
A77G U81A	2.73
A77G U81C	2.1
C76U U143C	2.01

Variant	self-cleavage
U73G U119C	1.57
G72C U112C	0.98
U73C C131G	1.73
U73C C131U	1.73
U73C C131A	1.55
U73A U104C	1.53
U73A U104A	1.09
G75C U134A	0.49
U73C C103U	1.61
U73A G122A	1.98
G75A G135A	1.18
U73A C76U	2.51
U73A U102C	0.97
U73C G127A	1.7
U73C G114A	1.54
G74A U130C	0.87
U73C A142U	1.24
U73C A142G	1.82
U73C A107U	2.22
U73G U96C	0
G75A U112A	0.91
C76U A107U	2.27
G72C U73C	1.13
G75A A79G	0.83

Variant	self-cleavage
C76U C95U	0.41
U73A U108A	1.42
G72A A140G	1.16
A77G U119A	2.04
A77G U119G	1.39
G75A U143A	1.53
G72C A94G	0.18
U73A U130A	1.83
U73A U130C	1.82
C76U U132C	1.8
U73C C116U	1.39
C76U U85C	0.36
A77C U115A	1.28
A77G C145A	2.43
A77G C145U	2.12
U73G A92G	0.36
G72C C111U	1.1
A77G C99U	1.01
G74A A121U	1.07
A77G G82U	2.49
A77G G82A	0.85
U73C A94G	0.37
U73C U115C	1.63
G74A U115C	1.46

Variant	self-cleavage
G75A A117C	1.31
A77C A94G	0
G74A U143A	1.72
G74A U143G	2.27
G74U U102A	1.79
U73A G135A	1.66
G74A U112C	0.66
G72U C116A	1.23
U73A G86A	0.04
G72A U132C	1.13
U73A G80A	2.16
U73G A140G	1.21
U73A A124C	2.02
U73A A124G	1.03
A77G C84U	0.25
A77G U102C	1.96
A77G U100C	2.88
A77G G83U	1.28
G75A A107G	1.66
G72A A121U	1.52
G72A A121G	1.02
G74A U102C	1.08
U73C G105U	1.32
U73C G105A	2.03

Variant	self-cleavage
G72A C84U	0.19
U73C U109C	0.31
A77G U134C	2.54
C71U U119C	1.18
G72U C113U	1.15
G72A U143C	1.65
C76G C84A	0.14
C76A U81G	0.33
C76A U81C	1.46
G74A U119A	0.84
G74C U132A	1.46
A77G C98U	0.54
U73G U143C	2.02
G74U A141G	1.68
U73C G125U	2.15
A77G G126A	2.42
C76U U108C	2.53
G72A U87A	0.07
G72U A77G	2.19
C71U U109A	0.41
U73C A121U	1.89
C76U A94G	0.18
U73C C90A	0.06
U73C G106A	1.7

Variant	self-cleavage
A77G G106A	2
C76G A141G	2.47
G74A U87C	0.08
A77G U91C	0
A77C C116U	1.04
A77G A140G	1.7
A77G A140U	2.21
U73C U104G	1.71
U73C U104C	0.94
U73C U104A	1.93
A77G U109A	1.75
A77G U109C	1.51
U73A A138U	1.72
U73A A138G	1.75
U73A G126A	0.57
G72A G83A	1.53
G72U U130A	1.07
U73C U85G	0.21
U73C U85C	0.08
U73G U102A	1.22
U73C U134C	1.87
U73C U134A	1.54
G75A U119C	1.5
U73G U108A	1.33

Variant	self-cleavage
G72A A142G	1.27
G75A A94G	0.25
G75A A94U	0.35
C76A U143A	1.65
A77C A142G	1.34
G75A U87G	0.18
G74A C113A	0.85
C76G U102C	2.25
C76A A124G	0.92
A77G U96C	0.18
A77G U96G	0.16
C76U U102C	0.59
G74A A136U	0.91
A77G G135U	0.63
U73A U85A	0.05
U73A U85C	0.1
A77G A92U	1.11
A77G A92G	0.2
G72U U87C	0.32
G72A U102A	1.66
G74A U134C	1.1
U73C C76U	2.52
C71U U100A	0.04
C71U U100C	1.31

Variant	self-cleavage
U73C C145U	1.53
U73C G74A	2.38
C71U U102C	0.18
U73A U87C	0.06
G75C U109C	0.62
U73G A77U	1.14
C76U C99U	0.99
C71U U115A	0.85
A77G G127A	2.11
G72A U100A	0.18
G72A U100C	0.32
A77C U81C	0
U73C G97A	0.41
U73C U100A	1.81
U73C U100C	1.99
G72C A77G	2.28
G74U	1.4
G74A	0.95
G74C	1.6
A77G A78G	1.68
A77C U102C	0
U73A A117C	1.99
U73A A117G	1.4
U73A A77U	0.69

Variant	self-cleavage
G72A U109A	1.37
G72A U108C	1.54
U73G U81G	1.05
U73C G86A	0.14
U73C A129C	1.36
U73C A129G	1.98
U73C C98A	0.21
A77C A78G	1.63
U73A C98U	0.32
A77C G114A	0.63
G75A A141G	1.16
A77G A142G	2.14
G75U A78U	1.49
U73A C110A	0.94
G74U A94G	0.15
U73A C123U	1.3
U73A A94U	0.27
U73A U115C	1.9
U73C U81C	1.47
U73A G139A	1.47
A77C C128U	1.67
U73A G82A	1.74
U73A G82U	1.65
U73C A77U	1.31

Variant	self-cleavage
C76U A117C	2.66
C76U A117G	2.24
G72A A129G	1.67
C76G A78G	1.7
G72A A138G	1.51
A77G U104G	1.87
G75A U100A	0.42
G75A U100C	1.5
A77G A121U	2.74
U73C U102C	1.11
U73C C111U	2.14
A77G U132C	2.73
U73G U115A	1.12
G74U U112C	1.64
U73A A129G	1.67
U73A A129U	1.7
G72A C120U	1.31
G74A G144A	1.09
C76U G105C	2.51
G74A A124U	1.22
A77G A138U	2.56
U73G A107U	1.59
C76U A140G	2.36
C76U A140U	2.07

Variant	self-cleavage
C76U U104C	2.05
U73C A140U	1.85
U73C A140G	1.63
A77C A136G	1.06
G74A U109C	0.7
G75C U119A	0.95
A77G G137A	2.66
U73A U81G	1.85
U73A U81C	1.09
A77G G80U	2.02
A77G G80A	2.17
G72A A107G	1.36
A77G U112C	2.18
A77G U112A	2.32
U73C A136U	1.76
A77G A129U	2
U73A	1.46
U73G	1.29
U73C	1.72
U73G A136G	1.84
A77G G114A	2.27
G75U U115A	1.06
